This note sets out measurements from PMC12501226.

In the test the target is SARS-CoV-2 spike HexaPro protein (SARS-CoV-2). Put plainly: SPR.

“T3A (collagen XVIII trimerization domain, 3-residue G/S linker, ACE2 18-615) (from UniProt P39060;Q9BYF1)” showed a Kd of 370 pM.

Substance “T1A (collagen XVIII trimerization domain, 1-residue G/S linker, ACE2 18-615) (from UniProt P39060;Q9BYF1)” yielded a Kd of 100 pM.

For the substance “T5A (collagen XVIII trimerization domain, 5-residue G/S linker, ACE2 18-615) (from UniProt P39060;Q9BYF1)”, the Kd is 690 pM.

In turn, “ACE2 monomer (human extracellular ACE2 domain, residues 18-615, cut from ACE2-TEV-Fc) (from UniProt Q9BYF1 18-615) (domain or fragment)” had a Kd of 49000 pM, a koff of 0.0073 s⁻¹ and a kon of 150000 M⁻¹ s⁻¹.
